Experimental data reported in the nanobody polyreactivity screen of Harvey et al. (2022).

Assay: yeast display, Sf9 membrane polyspecificity reagent, FACS + sequencing; frameworks hold sequencing errors
Summary of the method: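 Galactose-induced (36–48 hours) yeast carrying a synthetic nanobody display library were exposed to 10% biotinylated, detergent-solubilized Sf9 membrane reagent at 4 °C for 1 hour. FACS followed streptavidin microbead enrichment, using low and high (top ~1%) gates for expression (anti-HA) and reagent binding (streptavidin). Colony PCR, MiSeq 2 × 250 sequencing and CDR-length filtering followed. Labels for polyreactivity reflect the gate of origin.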
In the case of “QVQLVESGGGLVQAGGSLRLSCAASGSIFVKNAMGWYRQAPGKERELVAVITIRTATTYYADSVKGRFTISRDNAKNTVYLQMNSLKPEDTAVYYCAAAKRQRGYLQREGNYWGQGTQVTVSS”, the “polyreactivity (PSR sort gate)” value is reported as “low polyreactivity”.
For “QVQLVESAGGLVQAGGSLRLSCAASGRTFRTYAMGWYRPAPVKERELVAAITSGGNTYYADSVKGRFTISRDNAKNTVYLQMNSLKPEDTAVYYCAAVQYFKVYYWGQGTQVTVSS”, the “polyreactivity (PSR sort gate)” value was “high polyreactivity”.
In the case of “QVQLVESGGVLVQAGGSLRLSCAASGRTLRPYAMGWYRQAPGKERELVAAMTGGVSTDYADSVKGRFTISRDNAKNTVYLQRNSLKPEDTAVYYGAVDDRWFNHISGRYYEYYYWGQGTQVTVSS”, the “polyreactivity (PSR sort gate)” value is reported as “low polyreactivity”.
For “QVQLVESGGGLVLAGGSLRLSCAASGFIFARYAMGWYRQAPGKERELVAAISRGGSTYYADSVKGRFTISRDNAKNTVYFQMHSLKPEDTAVYYCNKRQLPNARGSSTYEYWGQGTQVTVSS”, the “polyreactivity (PSR sort gate)” value was “high polyreactivity”.
For “QVQLVESGGGLVQAGGSLRLSCAASGRIFTTYVMGWYRQAPGKEWELVAAISARGSTYYADSVKGRFTISRDNAKNTVYLQMNSLKPEDTEVYYCAAGPRLPVYYGYPRATYNDWGQGTQVTVSS”, the “polyreactivity (PSR sort gate)” value was “low polyreactivity”.
With “QVQLVESGGGLVQAGGSLRLSCAASGFTFASYAMGWYRQAPAKEREFVAAITSRGGNTYYADSVKGRFTISRDNAKNTVYLQMNSLKPEDTAVYYCAAKSTYVVSKMNYWGQGTQVTVSS” the “polyreactivity (PSR sort gate)” value was “high polyreactivity”.
For “QVQLVESGGGLVQAGGSLRLSCAASGRTFRRYAMGWYRQAPGKERELVAVISRGGSTHYADSVKGRFTISRDNAKNTVYLQMNSLKPEDTAVYYCNAVVSVYTQDLDYWGQGTQVTVSS”, the “polyreactivity (PSR sort gate)” value was “high polyreactivity”.
With “QVQLVESGGGLVQAGGSLRLSCAASGFTFSHNAMGWYRQAPGKERELVAAISGSGGRTYYADSVKGRFTISRDNAKNTVYLQMNSLKPEDTAVYYCNAGRWWRRGYGYWGQGTQVTVSS” the “polyreactivity (PSR sort gate)” value was “high polyreactivity”.
With “QVQLGESGGGLVQAGGSLRLSCAAAGFIFRPYAMGWYRQAPGKERELVAVISNSGGSSNYADSVKGRFSISRENAKNTVYLQMNSLKPEDTAVDYCNALVYVPHWWTYYDWGQGTQVTVSS” the “polyreactivity (PSR sort gate)” value was “high polyreactivity”.
In the case of “QVQLVESGGGLVQAGGSLRLSCAASGHIFGGNAMGWYRQAPGKEMELVATISSGGSTHYADSVKGRFTISRDNAKNTVYLQMHSLKPEDTAVYYCAARRSYRATAYKYDYWGQGTHVTVSS”, the “polyreactivity (PSR sort gate)” value is reported as “low polyreactivity”.
With “QVQLVESAGGLVQAGGSLRLSCAASGSTFRLNTMGWYRQEPGNERELVAGISYSGGSTYYADSVNGRFTISRDNAKNTVYLQMNSLKPEDTAVYYCNKRAWFSSKDDYWGQGTQVTVSS” the “polyreactivity (PSR sort gate)” value was “high polyreactivity”.
For “QVQLVESGGGLVQAGGSLRLSCAASGIIFPYNTMGWYRQAPGKERELVASIDDGGSTNYADSVKGRFTISRDNAKNTVYLQMNSLKPEDTAVYYCAADPYWFFPHYDSWGQGTQVTVSS”, the “polyreactivity (PSR sort gate)” value was “low polyreactivity”.
With “QVQLVESGGGLVQAGGSLRLSCAASGIIFTYAMGWYRQAPGKERELVAAIDWRGGRTYYADSVKGRFTISRDNAKNTVYLQMNSLKPEDTAVYYCAARLPGGTYYWGQGTQVTVSS” the “polyreactivity (PSR sort gate)” value was “high polyreactivity”.
For “QVQLVESGGGLVQAGGSLRLSCAASGSIFSKYVMGWYRQAPGKERELVAAISWSGTRTYYADSVKGRFTISRDNAKNTVYLQMNSLKPEDTAVYYCAARRLYAGHQYDYWGQGTQVTVSS”, the “polyreactivity (PSR sort gate)” value was “high polyreactivity”.
For “QVQLVESGGGLVQAGGSLRLSCAASGRTFSFYAMGWYRQAPGKERELVAAISSGGGRTYYADSVKGRFTISRDNAKNTVYLQMHSLKPEDTAVYYCAAYRAYSGEFDYWGQGTQVTVSS”, the “polyreactivity (PSR sort gate)” value was “high polyreactivity”.
In the case of “QVQLVESAGGLVQAGGSLSLSCAASGRTFIRHAMGRDRQAPGKERELVAAINSGGITNYADSVKGRFTISRVNAKNTVFLKRNSLKPEDTAVYYCAAYKPWYVGLYPWYDYWGQGTQVTVSW”, the “polyreactivity (PSR sort gate)” value is reported as “low polyreactivity”.
With “QVQLVESGGGLVQAGGSLRLSCAAAGSTFHRYVMGWYRQAPGQERELVAVINSTGGSTYYADSVKGRFTISRDNAKNTVYLQMKCLKPEDTAVYYCARVTRRGPGYSTLFSRYDYWGQGTQVTVSS” the “polyreactivity (PSR sort gate)” value was “low polyreactivity”.
With “QVQLVESGGGLVQAGGSLRLSCAASGRTCFPYAMGWYRQAPGKERELVDAISSGGRTNYADSVKGRFTISRDNAKNTVYLQMNSLKPEDTAVYYCAARGYLRLYSYDYWGQGTQVTVSS” the “polyreactivity (PSR sort gate)” value was “high polyreactivity”.
With “QVQLVESGGGLVQAGGSLRLSCAASGSTYRYTMGWYRQAPGKERELVAAITGSAGRTYYADSVKGRFTISRDNAKNTVYLQMNSLKPEDTAVYYCNKVRPRKFWDYYYWGQGTQVTVSS” the “polyreactivity (PSR sort gate)” value was “high polyreactivity”.
For “QVQLVESGGGLVQAGGSLRLSCSASGTILYFYAMGWYRQAQGKERELVAAIDSGGSTDYADSVKGRFTISRYNAKNTVYLQMNSLKPEDTAVYYCAAYPWERYTWWYVYRGHVYWGQGTQVTVSS”, the “polyreactivity (PSR sort gate)” value was “low polyreactivity”.
In the case of “QVQLVESGGVLVQAGGCLRLSCAASGSILDLNAMGWYRQAPGKERELVAAISLSGGTTYYADSVKGRFTISRDNAKNTVYLQMYSLKPEDTAVYYCNAGYFRPRAGNYVFGVESDYWGQGTQVTVSS”, the “polyreactivity (PSR sort gate)” value is reported as “high polyreactivity”.
For “QVQLVESGGGLVQAGGSLRLSCAASGLIFGSYVMGWYRQAPGKERELVAAITVRTGTTYYADSVKGRFTISRDNAKNTVYLQMNSLKPEDTAVYYCARRYRPKYGYWGQGTQVTVSS”, the “polyreactivity (PSR sort gate)” value was “high polyreactivity”.
In the case of “QVQLVESGGGLVQAGVSLRLSCAASGNTFWVYAKGSYRQAPGKARELVAAMTRGGSTNYEDSVKGRFTISRDNAKNTVYFQMNSLKPEDTAGYYCAAESFIYFPYKMDYWGQGTQVTVSS”, the “polyreactivity (PSR sort gate)” value is reported as “low polyreactivity”.
With “QVQLVESGGGLVQAGGSLRLSCASSGPIIFAYAMGWYRQAQGKEREFVAAISDNDGSTYYADSVKGRFTISRDNAKNSVYLQMNSLKPEDTAVYYCNADLGYVYDYWGQGTQVTVSS” the “polyreactivity (PSR sort gate)” value was “low polyreactivity”.
For “QVQLVESGGGLVQAGGSLRLSCAASGFNFVSYAMGWYRKAPGKERELVAVIDNSDGDTYYADSVKGRFTISRDNAKNTVYLQMNSLKPEDTAVYYCARDVSARGYLPFDYWGQGTQVTVSS”, the “polyreactivity (PSR sort gate)” value was “low polyreactivity”.
With “QVQLVESGGGLVQAGGSLRLSCAASGRTFYGNAIAWYRQAPGKERELVAAINRGGNTNYADSVKGRFTISRDNAKNTVYLQMNSLKPEDTAVYYCAARPYYRYFEYWGQGTQVTVSS” the “polyreactivity (PSR sort gate)” value was “high polyreactivity”.
With “QVQLVESGGGLVQAGGSLRISCAASGLTFRRNAMGGYRQAPGKERELFAAITASGGSTYYADSVTGRFTISRDNAKNTVFLQMNSLKPEETAVYYSAAVNYRWYSRNYDHYYWGQGTQVTVSS” the “polyreactivity (PSR sort gate)” value was “high polyreactivity”.
In the case of “QVQLVESGGGLDQAGGSLRLSCAASGSIFHWNVMGWYRQAPGKERKLVAVISSSDGSTNYADSVKGRFTISRDNAKNTVYLQMNCLKPEDTAVYYCAARGYAINYLWPFNYWGQGTQVTVSS”, the “polyreactivity (PSR sort gate)” value is reported as “low polyreactivity”.
In the case of “QVQLVESGGGLVQAGGSLRLSCAASGRTFKYNSMGWYRQAPGKERELVAAITRSGSTYYADSVKGRFTISRDNAKNTVYLQMNSLKPEDTAVYYCNARIVNYGSYYYWGQGTQVTVSS”, the “polyreactivity (PSR sort gate)” value is reported as “high polyreactivity”.
For “QVQLVESVGGLVQAGGSLRLSCAASGGIFWVYAMGWYRQAPGKERELVASISWNGGSTNYADSVKGLFTISRDNAKNTVYLQMNSLKPEDTAVYYCAAEYWTSYADYRYDYWGQGTQVTVSS”, the “polyreactivity (PSR sort gate)” value was “low polyreactivity”.
In the case of “QVQLVESGGGLVQAGGSLRLSCAASGFTFGQYAMGWYRQAPVKERELVAAITGSGGRTYYADSVKGRITISRDTAKNTVYLQMNSLKPEDTGVYYCNARVPLRQYSNYYWGQGTQVTVSS”, the “polyreactivity (PSR sort gate)” value is reported as “high polyreactivity”.
In the case of “QVQLVESGGGLVQAGGSLRLSCAAYGRIFYRNVMGWYRQAPGKERELVAAITYRTGSTYYADSVKGRFTISRDNAKNTVYLQMNSLKPEDTAVYYCNVVPRNGQTWGYEYDYWGQGTQVTVSS”, the “polyreactivity (PSR sort gate)” value is reported as “high polyreactivity”.
For “QVQLVESGGGLVQAGGSLRLSCAASGSTFAKYAMGWYRQAPGKERELVAVISWGGGSTYYADSVKGRFTISRDNAKNTVYLQMNSLKPEDTAVYYCAAVYDEYQTTHEYDYWGQGTQVTVSS”, the “polyreactivity (PSR sort gate)” value was “low polyreactivity”.
For “QVQLVESGGGLVQAGGSLRLSCAASGSIFRPYTMGWYRQAPGKEREFVAAITWSDGSTYYADSVKGRFTISRDNAKNTVYLQINSLKPLDTAVYDCAADLHDGYYYSFWYGYDYWGQGTQVTVSS”, the “polyreactivity (PSR sort gate)” value was “low polyreactivity”.
In the case of “QVQLVESGGCLVQAGGSLRLSCAASGRTFRWYAMGWYRQAPGKESELVAAINPGGSTNYADSVKGRFSISRDNAKNTVYLQMNSLKPEDTAVYYCNAAGYDALTHNYYWGQGTQVTVSS”, the “polyreactivity (PSR sort gate)” value is reported as “low polyreactivity”.
For “QVQLVQSVGGLVHAGGSLRLSCAASGRTYGVYAMGWYRQAPGKERELVAAITYSGGSTYYADSVKGRFTISRDNAKNTVYLQMNSLKPEDTAVYYCAAETRVGLYYVREVYYWGQGTQVTVSS”, the “polyreactivity (PSR sort gate)” value was “low polyreactivity”.
In the case of “QVQLVESGGGLVQAGGSLRLSCAASGSIFTSYAIGWYRQAPGKERELVAGIDWSGGGTYYADSVKGRFTISRDNAKNTVYLQMNSLKPEDTAVYYCNADGPYTRYGPVDYWGQGTQVTVSS”, the “polyreactivity (PSR sort gate)” value is reported as “low polyreactivity”.
For “QVQLVESGGGLVQAGGSLRLSCAASGSIFAYNAMGWYRQAPGKEREFVAAISQCGGRTYYADSVKGRFTISRDNAKTTVYLQMNSLKPEDTAVYYCATDGIRLTRHRDYDYWGQGTQVTVSS”, the “polyreactivity (PSR sort gate)” value was “low polyreactivity”.
With “QVQLVESGGGLVQAGGSLRLSCAASGSIFRGYTMGWYRQAHGKERELVAAITSGDSTNYADSVKGRFTISRDNAKNTVYLQMKSLKPEDTAVYSCAAVTRFYTKYYWGQGTQVTVSS” the “polyreactivity (PSR sort gate)” value was “high polyreactivity”.
With “QVQLVESGGGLVQAGGSLRLSCAASGRIFYYYTMGWYRQAPGKERELVAGISRSGDRTYYADSVKGRFTISRDNAKNTVYLQMNSLKPEDTAVYYCATRWSSARMDYWGLGTQVTVSS” the “polyreactivity (PSR sort gate)” value was “high polyreactivity”.
For “QVQLVESGGGLVQAGGSLRLSCAASGSTIDHNAMGWYRQAPGKERELVATISSSGGSTYYADSVKGRFTISRDNAKNTVYLQMNSLKPEDTAVYYCAVRAYYWRSYPYNYWGQGTQVTVSS”, the “polyreactivity (PSR sort gate)” value was “high polyreactivity”.
In the case of “QVQLVESGGGLVQAGGSLRLSCAASGRIFLLNAMGWYRQAPGKERELVADISFNGGSKYYADSVKGRFTISRDNAKNTVYLQMNSLKPEDTAVYYCNADAHNLWFRYYYWGQGTQVTVSS”, the “polyreactivity (PSR sort gate)” value is reported as “low polyreactivity”.
With “QVQLQESGGGLVQAGGSLRLSCASSGSIYDDTYMGWYRQAPGKERELVATIDSGSTTNYADSVKRRITISRDNAKNTVYLQMNSLKPEDTAVYYCAAADSHIDYFDYWGQGTQVTVSS” the “polyreactivity (PSR sort gate)” value was “low polyreactivity”.
